B1: Twister Ribozyme (parent)
chain: AACACUGCCAAUGCCGGUCCCAAGCCCGGAUAAAAGUGGAGGGGGCGG

Variants of: B1
Assay: self-cleavage, relative activity (ratio to wild type); higher = more cleavage; co-transcriptional

Point of comparison: G7U C26G, self-cleavage 0.0462. Against it:
- U18C A34C — higher, 0.0598
- A23U G47A — higher, 0.245
- G28A A40G — higher, 0.188
- C5G G17A — higher, 0.0746
- C3G C25G — higher, 0.109
- C20G G43U — higher, 0.0978
- G13A U37C — higher, 0.183
- U12G G29A — higher, 0.622
- G7C G38A — higher, 0.0835
- A23G G38A — higher, 0.194
- C8A U37C — higher, 0.144
- U18C C25G — higher, 0.104
- C25A G29A — higher, 0.308
- G13U A34C — higher, 0.083
- A30U A40G — higher, 0.165
- U6G G38U — higher, 0.223
- A2G C5A — higher, 0.0588
- A40C G45A — higher, 0.23
- A4C G16A — higher, 0.0955
- G29A A30C — higher, 0.865
- G39A G42U — higher, 0.164
- C21U A22C — higher, 0.0923
- C5G C9G — higher, 0.125
- C20G — higher, 0.169
- C20U G42C — higher, 0.654
- U12A G44C — higher, 1.19
- U12A G44U — higher, 1.05
- C14A C15A — higher, 0.885
- U18G G29A — higher, 0.089
- C19A G47U — higher, 0.131
- A11G G41A — higher, 0.505
- G42U C46G — higher, 0.309
- G24U G43C — higher, 0.076
- U6A C27U — higher, 0.682
- C21A A40G — higher, 0.0639
- A1C G17A — higher, 0.172
- G13A U31A — higher, 1.02
- A22C C26A — higher, 0.46
- C14G C15U — higher, 0.401
- C5U A32G — higher, 0.795
- G24A G39U — higher, 0.0747
- U12G C14A — higher, 0.726
- U12G C14U — higher, 0.756
- C9G G43A — higher, 0.123
- C26A G44A — higher, 0.562
- G16A G28C — higher, 0.489
- C19U G47U — higher, 0.39
- G16C G45U — higher, 0.379
- U6C U18G — lower, 0.0358
- C25U G28U — higher, 0.724
- G17A U31C — higher, 0.746
- A1C A34C — higher, 0.214
- G28U G39C — higher, 0.15
- C5U C46G — higher, 0.776
- A40G G42C — higher, 0.215
- C27A G48U — higher, 0.397
- G13A A32G — higher, 0.882
- G45U G48A — higher, 0.757
- C3G G48C — higher, 0.65
- C9G C14A — higher, 0.536
- G7U A11C — higher, 0.0886
- G16A G42C — higher, 0.241
- A4C U6G — lower, 0.0323
- C14A A34C — higher, 0.426
- G17C A33U — higher, 0.0842
- A23C C46A — higher, 0.164
- C9A G13C — higher, 0.729
- G17C G28A — higher, 0.069
- A2U C46U — higher, 0.723
- A1G A40U — higher, 0.204
- G16U G45C — higher, 0.554
- C5U U6G — higher, 0.261
- C9A A33G — higher, 0.522
- G38C G45A — higher, 0.736
- G13A A34G — higher, 0.635
- G13A A34C — higher, 0.173
- A23C U37A — higher, 0.088
- C9U C21G — higher, 0.0888
- G7U G44U — higher, 0.0819
- G7C G13A — higher, 0.0687
- U6C G17C — higher, 0.0484
- A23U G29A — higher, 0.285
- A2G A10C — higher, 0.322
